Measurements: patent publication US7893023B2, “Prodrugs activated by plasmin and their use in cancer chemotherapy” (priority 2000, dated 2011)
Like-named read-outs stand apart in the source and are kept apart here. Square brackets hold non-standard residues; d marks the D form. Peptide text beside a SMILES is read from it. * marks the point of attachment. ξ: configuration not given here. Doxorubicin(3'-N) = COc1cccc2c1C(=O)c1c(O)c3c(c(O)c1C2=O)C[C@@](O)(C(=O)CO)C[C@@H]3O[C@H]1C[C@H](N*)[C@H](O)[C@H](C)O1; X1 = COc1cccc2c1C(=O)c1c(O)c3c(c(O)c1C2=O)C[C@@](O)(C(C)=O)CC3OC1C[C@H](N*)[C@H](C)[C@H](C)O1; AMC = Cc1cc(=O)oc2cc(N*)ccc12; ξL = CC(C)CC(N)C(=O)O; ξK = NCCCCC(N)C(=O)O; ξA = CC(N)C(=O)O

Legend:
human plasmin = molecular target: T1, human plasmin (Homo sapiens, UniProt P00747); assay: Hydrolysis by human plasmin; assay type: biochemical; conditions: for rate of in vitro hydrolysis by human plasmin: 0.17 mM, 0.1 units human plasmin, 25° C., 50 mM pH 8.0 TES buffer
T1 construct: purchased Sigma
Experimental: In an eppendorf tube, 50 μl of the substrate at a concentration of 50 μM in DMF were mixed with 900 μl of TES buffer and 50 μl of an enzyme-containing solution. The mixture was incubated for 1 hour at 25° C. Fluorescence was determined (λexc=350 nm, λem=496 nm; fluorometer standardized with a 10 nM solution of 7-amido-4-methylcoumarin in PBS and the whole mixture excluding the enzyme). A dosage curve was done in parallel with known plasmin concentrations (at least five ½ dilutions). Plasmin activity was determined and expressed in IU/ml; μmole substrate transformed/min×ml.
Compounds I, DNR and II, DNR (0.17 mM), as well as D-Ala-Leu-Lys-7-amido-4-methylcoumarin (0.17 mM) were incubated at 25° C. in the presence of 0.1 units of human plasmin in a 50 mM, pH 8.0 TES buffer. For Compounds I, DNR and II, DNR, HPLC samples were prepared and analyzed by HPLC (See General Methods, Section J). In case of D-Ala-Leu-Lys-7-amido-4-methylcoumarin, after 1 hour of incubation, the fluorescence of the resulting solution was determined at λexc=350 nm, λem=496 nm (See General Methods, Section N.).
After 15, 45 and 60 min of incubation, triplicate aliquots were removed and the drugs and metabolites extracted prior to HPLC analysis (See General Methods, Section J.).

B16-B16 melanoma cells = assay: Uptake by B16-B16 cells; assay type: cell-based, murine
Experimental: This experiment was conducted to evaluate whether the prodrugs were able to enter cultured cells in their non-hydrolyzed forms. In addition, it was desired to estimate the capacity of the prodrugs to induce detectable levels of products of their enzymatic hydrolysis (DNR and its amino acid derivatives) inside B16-B16 cells. N-Leu-Leu-DNR was chosen as a reference drug since it is the product that is directly liberated by plasmin from Compound II, DNR.
At determined time points (1, 3, 5 and 24 hours), the cells were washed, harvested and lysed by ultrasonication. The concentration of the drugs and metabolites in the cell lysates were determined after extraction and HPLC analysis (See General Methods, Section J.). The amounts of anthracycline derivatives found per mg of protein were then compared.

[1] = tested on: medium conditioned by cultured B16-B16 cells; assay: Hydrolysis in medium conditioned by B16-B16 cells; assay type: in vitro ADME, murine; conditions: 17.24 μM, medium 20 times concentrated, 2 hours, 37° C.
Experimental: Compounds I, DNR and II, DNR (17.24 μM) were incubated in a medium freshly conditioned by the cultured B16-B16 cells (20 times concentrated) for 2 hours at 37° C. After that time, triplicate aliquots were removed and the drugs and metabolites extracted prior to HPLC analysis (See General Methods, Section J.).

[2] = tested on: MCF-7/6 human mammary carcinoma cells; assay: In vitro accumulation by cultured MCF-7/6 tumor cells; assay type: cell-based; conditions: 0.02 mM, 37° C., after 24 hours
Experimental: Compound I, DNR was incubated in vitro at 37° C. in the presence of MCF-7/6 human mammary carcinoma cells and the intracellular accumulation of the compound or its potential metabolites were analyzed by HPLC and fluorimetry, after extraction of the drugs from the cells.
Compound I, DNR was dissolved in distilled water at 17.24 μmole/ml and then diluted to obtain 0.02 mM in DMEM-F12 culture medium supplemented with 10% fetal calf serum (glutamax-I). Four ml of medium was poured in 25 cm^2 flasks (ref 3014. FALCON), and the cells were incubated for 30 minutes, 1, 3, 6 and 24 hours at 37° C. Then the cells were washed three times with PBS, and the cells were scraped from the flasks, and sonicated for 30 seconds at 100 Watts in a ice bath. Aliquots of 500 μl from each sample were then extracted with 1.8 ml of a chloroform:methanol mixture (4:1 by volume) to which 0.1 ml of 0.2 M borate buffer at pH 9.2, containing DOX at […] as internal standard, were added. After stirring, the organic layer was dried and resuspended in 400 μl of distilled water, sonicated 5 minutes at 100 Watts in a ice-bath and filtered through a 0.22 μm filter (Waters-Millipore, MILLEX-GV) and then analyzed by HPLC.
On a aliquot of 100 μl, the protein content of the cell homogenate was determined.

[3] = tested on: LS174T colon tumor xenografts; assay: Chemotherapeutic activity in the LS174T human colon tumor xenograft model; assay type: in vivo, mice
Text: Animals were kept under pathogen-free conditions with food and water supplied ad libitum, and kept for about one week before implantation of the tumors. Fragments (˜2 mm) of tumors grown in nude mice were implanted subcutaneously in both flanks of the mice. Tumors were generally allowed to grow to attain a diameter of 5-6 mm each (approximately two weeks).
The mice weighed 20.0-25.0 g at the beginning of the study. They were selected and assigned to groups in order to have equally distributed tumor volumes in the different groups. In each group, mice were labeled individually. Treatments were assigned randomly to those groups.
All dosing solutions were prepared the day of injection by dissolution in water ( 1/10 of the expected final volume) and further dilution with 0.9% (w/v) NaCl. The concentration of these solutions was checked (A475 nm determination) after sterilization by filtration (0.22 μm) and adjusted to the final required value using sterile 0.9% (w/v) NaCl).
Treatments were administered by the i.p. route. The mice received a constant volume (10 μl/g) of either saline (control group) or drug. Mortality and clinical signs were recorded up to 4 hours post-treatment on dosing days, and daily thereafter. Their behavior was equally noted. Individual body weights were generally recorded daily until day 14 and at least twice a week thereafter.
Tumor growth was monitored by two-dimensional measurements using calipers and a precision of 0.5 mm. Tumor volumes were calculated according to the following formula: Vt=[length×(width)^2]/2
Median relative tumor volumes (RTV) were calculated as tumor volumes determined at individual days divided by tumor volumes on day 0. For treated groups, growth inhibition was estimated as the percentage ratio of median RTV of treated (T) mice versus controls (C) on each day of tumor treatment. T/C(%)=[Median RTV(treated group)/Median RTV(control group)]×100
The minimal T/C value (%) for each treatment was used as a parameter for maximum efficacy. Duration of growth inhibition was assessed by considering growth delays (T-C) for one (200%) and two (400%) doublings of the median RTV).
To determine the statistical significance of any difference in median RTV between two groups, the Mann-Whitney test was used. The test was conducted at a p level of 0.05 (two tailed) using the GraphPad Prism 3.00 software.
Female Swiss nude mice were 5 weeks old upon delivery (See General Methods, Section O). They were kept under pathogen-free conditions with food and water supplied ad libitum, and kept for about one week before implantation of the tumors. Fragments (˜2 mm) of LS174T tumors grown in nude mice were implanted subcutaneously in both flanks of the mice used in the study. Tumors were left to grow for 17 days. At that time, the mice weighed about 20.5-26.5 g.
Mice were then selected and assigned to groups in order to have equally distributed tumor volumes in different groups (5-6 mice, 9-10 tumors/group). The dose levels of Compound II, DOX used in the study, were selected on the basis of a lethality study previously conducted on OF-1 normal mice. The dose of DOX was based on previous chemotherapy experiments performed in nude mice with the same dosing schedule.
Treatments were administered by the i.p. route on days 0, 1, 2, 3 and 4, the mice receiving a constant volume (10 μl/g) of either saline or the different dosing solutions. DOX was used at 3.8 μmol/kg, Compound II, DOX was used at 25.9 μmol/kg and 34.5 μmol/kg. Clinical signs (recorded 0.5, 1, 2 and 4 hours after dosing and daily between dosing days) and body weights (recorded on each day of tumor measurement) were used to assess treatment toxicity, tumor growth was monitored on days 7, 12, 15, 19, 22, 26, 29, 33 and 36 by two-dimensional measurements using calipers and a precision of 0.5 mm.

[4] = Acute toxicity in OF-1 mice, i.p.; assay type: in vivo; conditions: male, mouse, in vivo, ip; OF-1 mice, five i.p. injections days 0-4, calculated on day 28
Experimental: (§1) The percentage of surviving mice and the mean body weight of each dose group was plotted as a function of time. Cumulative mortality on day 14 and day 28 was also plotted as a function of the dose level for the purpose of IC50 determination. IC50 values were determined from sigmoidal regressions performed with the GraphPad Prism 3.00 software.
(§2) Male OF-1 mice (5 weeks old upon delivery), were kept for one week under laboratory conditions before the experiment. […] The animals were divided in six groups (5 mice per group) for toxicity studies and marked individually.
(§3) Mortality and clinical signs were recorded up to 4 hours post-treatment on dosing days, and daily thereafter. Individual body weights were recorded daily until day 14 and at least twice a week thereafter. The percentage of surviving mice and the mean body weight of each dose group were plotted as a function of time. Cumulative mortality on day 14 and day 28 was also plotted as a function of the dose level for the purpose of LD50 determination. LD50 values were determined by regression analysis.

OF-1 mice = assay: Acute toxicity in OF-1 mice, i.p.; assay type: in vivo
Experimental: as §1, §2, §3

[5] = DOX 3.8 μmol/kg, Compound II, DOX lower dosage 25.9 μmol/kg, i.p. days 0-4

T1 sequence (P00747 581-810 limits assumed): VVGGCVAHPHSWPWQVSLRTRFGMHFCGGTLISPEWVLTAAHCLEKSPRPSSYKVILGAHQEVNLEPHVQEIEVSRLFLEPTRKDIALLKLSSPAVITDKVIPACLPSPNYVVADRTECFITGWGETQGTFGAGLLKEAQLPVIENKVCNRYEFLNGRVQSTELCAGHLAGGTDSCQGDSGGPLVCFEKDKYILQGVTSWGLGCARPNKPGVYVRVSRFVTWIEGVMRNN
T1 sequence (P00747 97-580 partner limits assumed): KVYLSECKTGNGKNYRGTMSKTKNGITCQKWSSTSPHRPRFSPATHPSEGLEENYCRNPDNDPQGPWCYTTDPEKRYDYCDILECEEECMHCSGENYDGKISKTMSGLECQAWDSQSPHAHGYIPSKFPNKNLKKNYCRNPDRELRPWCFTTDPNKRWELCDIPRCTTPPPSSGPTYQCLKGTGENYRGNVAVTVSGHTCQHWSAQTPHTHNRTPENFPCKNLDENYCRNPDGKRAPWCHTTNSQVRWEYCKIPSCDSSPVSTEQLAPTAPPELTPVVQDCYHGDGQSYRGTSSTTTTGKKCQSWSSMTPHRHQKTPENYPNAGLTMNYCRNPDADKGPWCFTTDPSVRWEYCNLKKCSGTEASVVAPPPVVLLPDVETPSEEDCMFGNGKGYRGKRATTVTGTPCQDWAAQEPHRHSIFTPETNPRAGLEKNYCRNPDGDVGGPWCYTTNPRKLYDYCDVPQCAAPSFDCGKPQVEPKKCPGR
Experimental for B16-B16 murine melanoma: Male C57-B16 black mice were 5 weeks old upon delivery. The body weight of the animals was approximately 20 g at the beginning of the test (See General Methods, Section O).
The animals were divided in eight groups (5 mice per group). Confluent murine melanoma B16-B16 cells (See General Methods, Section E.) were washed twice with PBS and EDTA (See General Methods, Section F.) twice and detached with trypsin (2 min incubation at 37° C.), that was thereafter neutralized by DMEM-F12 (containing 10% of calf serum). The cells were centrifuged for 5 min at 300 g. The pellet was resuspended twice in the DMEM-F12 without serum and centrifuged 5 min at 300 g.
The number of cells per ml of DMEM-F12 was then estimated (Brucker chamber) and the dilution of 2.5×10^5 cells/ml prepared. Each animal received 200 μl of this suspension (5.0×10^4 cells) in its tail vein. The day of injection was considered day 0 of the study. […] Animals were weighed on days 0, 1, 3, 6, 8 and 14. Their behavior and eventual clinical signs were also noted. All animals were sacrificed on day 14 and autopsied.
The lung lobes were fixed in a Bouin's solution (picric acid: formaldehyde, 40%: acetic acid, 15:5:1, v/v). Every lobe immersed in the fixing solution in a Petri flask was uniformly lighted against an opaque black background. Pictures of the front and back side of every lobe were taken with the help of a light microscope, scanned and digitized. The relative surface occupied by B116-B16 colonies was then estimated with the Scion Image Program.
The individual mean values were analyzed with the Scheffe's F-test to evaluate the statistical significance of differences observed between the groups.

## COc1cccc2c1C(=O)c1c(O)c3c(c(O)c1C2=O)C[C@@](O)(C(C)=O)CC3OC1C[C@H](NC(=O)C(CC(C)C)NC(=O)C(CCCCN)NC(=O)C(CC(C)C)NC(=O)C(C)N)[C@H](C)[C@H](C)O1 (stereo partly drawn) [Compound I, DNR, D-Ala-Leu-Lys-Leu-DNR]
Human plasmin
  rate of in vitro hydrolysis by human plasmin: approximately 2.75 nmol/min/unit
B16-B16 melanoma cells
  intracellular level of metabolite DNR: 0.015±0.002 mmol/mg cell protein
[1]
  hydrolysis in medium conditioned by B16-B16 cells: Negative results
[2]
  accumulation by cultured MCF-7/6 cells: approximately 0.1 μg/mg of cell proteins

## COc1cccc2c1C(=O)c1c(O)c3c(c(O)c1C2=O)C[C@@](O)(C(C)=O)CC3OC1C[C@H](NC(=O)C(CC(C)C)NC(=O)C(CC(C)C)NC(=O)C(CCCCN)NC(=O)C(CC(C)C)NC(=O)C(C)N)[C@H](C)[C@H](C)O1 (stereo partly drawn) [Compound II, DNR, D-Ala-Leu-Lys-Leu-Leu-DNR] (H-[ξA][ξL][ξK][ξL][ξL]-X1)
Human plasmin
  rate of in vitro hydrolysis by human plasmin: 27.90 nmol/min/unit
Human plasmin; same conditions
  hydrolysis by plasmin, times more rapid than Compound I, DNR: at least 10 times
[1]
  hydrolysis in medium conditioned by B16-B16 cells: Negative results

## COc1cccc2c1C(=O)c1c(O)c3c(c(O)c1C2=O)C[C@@](O)(C(=O)CO)C[C@@H]3O[C@H]1C[C@H](NC(=O)[C@H](CC(C)C)NC(=O)[C@H](CC(C)C)NC(=O)[C@H](CCCCN)NC(=O)[C@H](CC(C)C)NC(=O)[C@@H](C)N)[C@H](O)[C@H](C)O1 [Compound II, DOX, D-Ala-Leu-Lys-Leu-Leu-DOX] (H-[dA]LKLL-{Doxorubicin(3'-N)})
[3]; 34.5 μmol/kg i.p. days 0-4, deaths on days 18, 34 and 35
  mice that died before the end of the study: three
[3]; 34.5 μmol/kg, day 26
  maximum loss of mean body weight: 14%
[3]; [5]
  treatment-related mortality: No treatment-related mortality
  weight loss: no significant weight loss
[4]
  LD50 at 28 day: 34.5 µmol/kg
OF-1 mice; OF-1 mice, 17.24-60.34 μmol/kg i.p. days 0-4
  survival: All animals survived to day 7
OF-1 mice; OF-1 mice, i.p.
  clinical signs of toxicity: piloerection, tremor, motor disturbances, stupor and finally, paralysis of the hind legs
OF-1 mice; doses 34.48 (after second week), 43.1 and 60.34 μmol/kg (after first week)
  loss of mean body weight compared to initial body weight (critical threshold attained): ≥ 20%
OF-1 mice; same conditions
  LD50 fold higher than that of DOX: 8.4 fold
B16-B16 murine melanoma; 34.5 μmol/kg
  body weight gained from day 6 to day 14: 4.9%
B16-B16 murine melanoma; 34.5 μmol/kg, day 14
  mean body weight, % of initial: 104.5%
B16-B16 murine melanoma; 34.5 and 69.0 μmol/kg
  clinical signs of toxicity: No clinical signs of toxicity were observed

## Cc1cc(=O)oc2cc(NC(=O)[C@H](CCCCN)NC(=O)[C@H](CC(C)C)NC(=O)[C@@H](C)N)ccc12 [D-Ala-Leu-Lys-7-amido-4-methylcoumarin, reference compound] (H-[dA]-Leu-Lys-{AMC}; N-terminus assumed)
Human plasmin
  rate of in vitro hydrolysis by human plasmin: 20.40 nmol/min/unit
[1]
  hydrolysis in medium conditioned by B16-B16 cells: Negative results

## N-Leu-Leu-DNR
B16-B16 melanoma cells; B16-B16 cells, 3 hours
  intracellular level of metabolite DNR: 0.67±0.12 nmol/mg cell protein
  intracellular level of metabolite L-Leu-DNR: 81.22±6.66 nmol/mg cell protein
B16-B16 melanoma cells; B16-B16 cells, 3 hours of incubation
  intracellular level of the unchanged compound: 7.74±0.75 nmol/mg cell protein
B16-B16 melanoma cells; B16-B16 cells, 24 hours
  intracellular level of metabolite L-Leu-DNR: 98.57±16.76 nmol/mg cell protein
  intracellular level of the unchanged compound: 1.04±0.10 mmol/mg cell protein
B16-B16 melanoma cells; B16-B16 cells, 24 hours (end of incubation)
  intracellular level of metabolite DNR: 1.60±0.77 nmol/mg cell protein
